{
  "source": "patent US20250304643A1",
  "about": "(BAINAN BIOTECH, published 2025)",
  "binders": {"B1": {"name": "Compound no. 5 (peptide)", "peptide": "Palmitoyl-H[Aib]DGTFISDYST[Aib]LDNLAARDFINWLIQTKITK-OH", "SMILES": "CCCCCCCCCCCCCCCC(=O)N[C@@H](Cc1c[nH]cn1)C(=O)NC(C)(C)C(=O)N[C@@H](CC(=O)O)C(=O)NCC(=O)N[C@H](C(=O)N[C@@H](Cc1ccccc1)C(=O)N[C@H](C(=O)N[C@@H](CO)C(=O)N[C@@H](CC(=O)O)C(=O)N[C@@H](Cc1ccc(O)cc1)C(=O)N[C@@H](CO)C(=O)N[C@H](C(=O)NC(C)(C)C(=O)N[C@@H](CC(C)C)C(=O)N[C@@H](CC(=O)O)C(=O)N[C@@H](CC(N)=O)C(=O)N[C@@H](CC(C)C)C(=O)N[C@@H](C)C(=O)N[C@@H](C)C(=O)N[C@@H](CCCNC(=N)N)C(=O)N[C@@H](CC(=O)O)C(=O)N[C@@H](Cc1ccccc1)C(=O)N[C@H](C(=O)N[C@@H](CC(N)=O)C(=O)N[C@@H](Cc1c[nH]c2ccccc12)C(=O)N[C@@H](CC(C)C)C(=O)N[C@H](C(=O)N[C@@H](CCC(N)=O)C(=O)N[C@H](C(=O)N[C@@H](CCCCN)C(=O)N[C@H](C(=O)N[C@H](C(=O)N[C@@H](CCCCN)C(=O)O)[C@@H](C)O)[C@@H](C)CC)[C@@H](C)O)[C@@H](C)CC)[C@@H](C)CC)[C@@H](C)O)[C@@H](C)CC)[C@@H](C)O"}},
  "target": "macaque GLP-2R (macaque)",
  "assay": "cell-based or functional assay",
  "note": "[ ]: non-standard residue; d: D form. The star is where a group is joined. Palmitoyl = CCCCCCCCCCCCCCCC(=O)*; Aib = CC(C)(N)C(=O)O",
  "data": [
    {"binder": "B1", "values": [
      {"measurement": "Efficacy (%)", "result": 120, "unit": "%"}
    ]}
  ]
}
